Assay results published in patent US20020160496A1 (DUKE UNIVERSITY, published 2002).

Biological target: the molecule itself
Test: blue native PAGE (BN-PAGE) of native, heat shocked and bis-ANS treated GRP94; self-association

B1: GRP94 (glucose regulated protein of 94 kDa) purified from porcine pancreas (other, UniProt Q29092 22-804, looked up)
chain: EDEVDVDGTVEEDLGKSREGSRTDDEVVQREEEAIQLDGLNASQIRELREKSEKFAFQAEVNRMMKLIINSLYKNKEIFLRELISNASDALDKIRLISLTDENALAGNEELTVKIKCDKEKNLLHVTDTGVGMTREELVKNLGTIAKSGTSEFLNKMAEAQEDGQSTSELIGQFGVGFYSAFLVADKVIVTSKHNNDTQHIWESDSNEFSVIADPRGNTLGRGTTITLVLKEEASDYLELDTIKNLVKKYSQFINFPIYVWSSKTETVEEPMEEEEAAKEEKEESDDEAAVEEEEEEKKPKTKKVEKTVWDWELMNDIKPIWQRPSKEVEDDEYKAFYKSFSKESDDPMAYIHFTAEGEVTFKSILFVPTSAPRGLFDEYGSKKSDYIKLYVRRVFITDDFHDMMPKYLNFVKGVVDSDDLPLNVSRETLQQHKLLKVIRKKLVRKTLDMIKKIADEKYNDTFWKEFGTNIKLGVIEDHSNRTRLAKLLRFQSSHHPSDITSLDQYVERMKEKQDKIYFMAGSSRKEAESSPFVERLLKKGYEVIYLTEPVDEYCIQALPEFDGKRFQNVAKEGVKFDESEKSKENREAVEKEFEPLLNWMKDKALKDKIEKAVVSQRLTESPCALVASQYGWSGNMERIMKAQAYQTGKDISTNYYASQKKTFEINPRHPLIRDMLRRVKEDEDDKTVSDLAVVLFETATLRSGYLLPDTKAYGDRIERMLRLSLNIDPDAKVEEEPEEEPEETTEDTTEDTEQDDDEEMDAGADEEEQETSETSTAEKDEL
notes: also called gp96; ERp99
binding result: binds
